Data from patent US20190292221A1 (published 2019).

Tests used:
Human EGFR-his [1] = target: T1, Human EGFR-his (human, UniProt P00533 25-645); assay: SPR, BEAT®3 captured on Protein G chip, EGFR-his injected; sample after high pH, 0 h
T1 construct: Soluble his-tagged antigen injected over captured BEAT®3; also called hsEGFR; not shown: his tag

Human EGFR-his [2] = target: T1, Human EGFR-his; assay: SPR, BEAT®3 captured on Protein G chip, EGFR-his injected; sample after high pH, 2 h
Human EGFR-his [3] = target: T1, Human EGFR-his; assay: SPR, BEAT®3 captured on Protein G chip, EGFR-his injected; sample after high pH, 4 h
Human EGFR-his [4] = target: T1, Human EGFR-his; assay: SPR, BEAT®3 captured on Protein G chip, EGFR-his injected; sample after high pH, 24 h
Human EGFR-his [5] = target: T1, Human EGFR-his; assay: SPR, BEAT®3 captured on Protein G chip, EGFR-his injected; average of 4 replicates of Reference #1 and #2
Experimental: The second assay, aims to determine the binding affinity to Human EGFR-his antigen. It was performed with a Serie S Sensor Chip Protein G (GE Healthcare).

B1: BEAT®3 (bispecific antibody, human IgG1, kappa, L234A L235A)
chain 1: EVQLVESGGGLVQPGGSLRLSCAASGFTFNTYAMNWVRQAPGKGLEWVARIRSKYNNYATYYADSVKSRFTISRDDSKNTLYLQMNSLRAEDTAVYYCVRHGNFGNSYVSYFAYWGQGTTVTVSSGGGGSGGGGSGGGGSEIVVTQSPATLSVSPGERATLSCRSSTGAVTESNYANWVQEKPGQAFRGLIGGANKRAPGVPARFSGSLSGDEATLTISSLQSEDFAVYYCALFYSNTWVFGQGTKLEIKGGGGTQVQLQESGPGLVKPSETLSLTCTVSGGSVSSGDYYWTWIRQSPGKGLEWIGHIYYSGNTNYNPSLKSRLTISIDTSKTQFSLKLSSVTAADTAIYYCVRDRVTGAFDIWGQGTMVTVSSASTKGPSVFPLAPSSKSTSGGTAALGCLVKDYFPEPVTVSWNSGALTSGVHTFPAVLQSSGLYSLSSVVTVPSSSLGTQTYICNVNHKPSNTKVDKKVEPKSCDKTHTCPPCPAPEAAGGPSVFLFPPKPKDTLMISRTPEVTCVVVDVSHEDPEVQFKWYVDGVEVHNAKTKPREEQYNSTFRVVSVLTVLHQDWLNGKEYKCKVSNKALPAPIEKTISKTKGQPREPAVYTLPPSREEMTKNQVKLVCLVTGFYPSDIAVEWESSGQPENNYYTTPPMLDSDGSFSLVSWLNVDKSRWQQGNIFSCSVMHEALHNRFTQKSLSLSPG
chain 2: not shown
chain 3: DKTHTCPPCPAPEAAGGPSVFLFPPKPKDTLMISRTPEVTCVVVDVSHEDPEVKFNWYVDGVEVHNAKTKPREEQYNSTYRVVSVLTVLHQDWLNGKEYKCKVSNKALPAPIEKTISKAKGQPREPEVATFPPSRDELTKNQVTLVCLVTGFYPSDIAVEWESNGQPENNYKTDPPLLESDGSFALSSRLRVDKSRWQQGNVFSCSVMHEALHNHYTQKSLSLSPG
notes: also called third BEAT antibody
Human EGFR-his [1]
  Average rel KD: 0.98 relative to reference
  Relative KD R1: 0.988 relative to reference
Human EGFR-his [2]
  Average rel KD: 1.02 relative to reference
  Relative KD R1: 1.02 relative to reference
Human EGFR-his [3]
  Average rel KD: 1.09 relative to reference
  Relative KD R1: 1.11 relative to reference
Human EGFR-his [4]
  Average rel KD: 1.15 relative to reference
  Relative KD R1: 1.17 relative to reference
Human EGFR-his [5]
  Average rel KD: 1 relative to reference
